Ends that are not written are not given here.
Assays:
[1] = target: T1, LC8 dynein light chain DYNLL1 (residues 1-89) (human (from the printed UniProt …, UniProt P63167 1-89)); assay: ITC; 15 µM DYNLL1 in the cell, 30-40 injections of 3-5 µl peptide; PBS with 3 mM 2-mercaptoethanol, pH 7.4; 299 K; A + B to AB model; conditions: both partners purified
T1 construct: DYNLL1, residues 1-89, UniProt P63167, cloned into pET-15b; The methods name thrombin removal of the His tag only for DYNLL2; also called DYNNL1; source: E. coli BL21(DE3)Star, purified (Ni IMAC, HiTrapQ anion exchange)
T1 sequence (P63167 whole entry, the tested form may be a part): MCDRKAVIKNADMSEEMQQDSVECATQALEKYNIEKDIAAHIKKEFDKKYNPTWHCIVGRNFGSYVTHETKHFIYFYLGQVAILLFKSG

[2] = target: T1, LC8 dynein light chain DYNLL1 (residues …); assay: as above; conditions: both partners purified; remark: listed apart in the source
[3] = target: the molecule itself; assay: crystal structure; DYNLL2 (1.2 mM dimer) with 1.3 mM dimerized-VSRGTQTE; hanging drop, 293 K, 20% PEG8000, 0.2 M MgCl2, 0.1 M TRIS pH 7.0

| Binder | Kd [1] [nM] | dH [1] [kcal/mol] | stoichiometry N [2] | binding result [3] |
| --- | --- | --- | --- | --- |
| EML3 (8-94), recombinant fragment (domain or fragment, human, UniProt Q32P44 8-94, looked up, also called EMAP-3; source: recombinant) GDGPAREALQSLSQRLRVQEQEMELVKAALAEALRLLRLQVPPSSLQGSGTPAPPGDSLAAPPGLPPTCTPSLVSRGTQTETEVELK | 50 | -7.74 | – | – |
| Ac-SRGTQTE (phage-selected consensus without position -5; also called Ac-5 version of the in vitro evolved consensus; source: synthetic peptide) [Ac-SRGTQTE] | 15200 | -11.6 | 1 | – |
| Ac-GSRGTQTE (phage-selected consensus with Gly at position -5; also called Gly-5 version of the in vitro evolved consensus; source: synthetic peptide) [Ac-GSRGTQTE] | 1640 | -16.7 | 1 | – |
| Ac-VSRGTQTE (also called phage selected consensus; source: synthetic peptide) [Ac-VSRGTQTE, in vitro evolved consensus peptide] | 80 | -18.1 | 1 | – |
| Ac-GDKSTQTD (natural consensus extended by Gly at position -5; also called Gly-5 version of the natural consensus; source: synthetic peptide) [Ac-GDKSTQTD] | 560 | -16.8 | 1 | – |
| Ac-VDKSTQTD (natural consensus extended by Val at position -5; also called Val-5 version of the natural consensus; source: synthetic peptide) [Ac-VDKSTQTD] | 70 | -15.6 | 1 | – |
| dimeric-… (Leu-zipper dimerized … peptide) (first two residues (Gly-7, Ser-6) come from the recombinant construct; leucine zipper of yeast GCN4, residues 250-281; PDB 3P8M holds the construct; not shown: GST, N-terminal, cleaved) not shown | < 7 | -15.5 | – | binds |
| Ac-DKSTQTD (also called natural consensus; Ac-5 version of the natural consensus; source: synthetic peptide) [Ac-DKSTQTD, naturally evolved consensus peptide] | 5600 | -11.7 | 1 | – |

Source: article PMC3078936, “Directed Evolution Reveals the Binding Motif Preference of the LC8/DYNLL Hub Protein and Predicts Large Numbers of Novel Binders in the Human Proteome” (PLoS ONE, 2011)
